Patent publication US10736971B2, “Peptide-based molecules for modulating car expression or accessibility and uses thereof” (Wright State University, priority 2015, dated 2020)

Test system: AdV-β-Gal
Assay: AdV-β-Gal transduction of transfected CAR-deficient CHO-K1 cells
Type: cell-based, Chinese hamster
Conditions: CHO-K1 transfected with CAR^Ex8, MAGI-1 and PDZ domain plasmids, MOI 100
From the text: CAR-deficient CHO-K1 cells were A) single, B) double, or C) triple transfected with plasmids encoding CAR^Ex8, MAGI-1 (black bars), PDZ1 domain (dotted bars), or PDZ3 domain (white bars), and balanced with empty pcDNA3.1 plasmid, followed by AdV-β-Gal (MOI 100) transduction. CHO-K1 cells were double transfected with CAR^Ex8 and pcDNA3.1, MAGI-1, PDZ3, or PDZ1 and analyzed for D) total CAR^Ex8 protein or E) cell-surface biotinylated CAR^Ex8 protein expression. Quantification of at least three individual experiments is shown in all bar graphs. *p<0.05.

Molecule	Adenovirus infection (AdV-β-Gal transduction)
MAGI-1 PDZ3 domain: MAGI-1 PDZ3 decoy domain, expressed from transfected plasmid in CHO-K1 cells (protein, PEPTIDE WILL BE CREATED USING CONVENTIONAL MEANS, MAGI-1 PDZ3 decoy domain, expressed from transfected plasmid in CHO-K1 cells) KETGFGFRILGGNEPGEPIYIGHIVPLGAADTDGRLRSGDELICVDGTPVIGKSHQLVVQLMQQAAKQGHVNLTVR	decreases
PDZ1 domain: MAGI-1 PDZ1 decoy domain, expressed from transfected plasmid in CHO-K1 cells (protein, PEPTIDE WILL BE CREATED USING CONVENTIONAL MEANS, MAGI-1 PDZ1 decoy domain, expressed from transfected plasmid in CHO-K1 cells) RKSSRGFGFTVVGGDEPDEFLQIKSLVLDGPAALDGKMETGDVIVSVNDTCVLGHTHAQVVKIFQSIP	inhibits MAGI-1-mediated CAR^Ex8 suppression to allow adenovirus infection
